First the molecules themselves.
T1: human FcγRIIb receptor on CHO-K1 cells (clone 223) (human, UniProt P31994 43-310)
T1 sequence (looked up): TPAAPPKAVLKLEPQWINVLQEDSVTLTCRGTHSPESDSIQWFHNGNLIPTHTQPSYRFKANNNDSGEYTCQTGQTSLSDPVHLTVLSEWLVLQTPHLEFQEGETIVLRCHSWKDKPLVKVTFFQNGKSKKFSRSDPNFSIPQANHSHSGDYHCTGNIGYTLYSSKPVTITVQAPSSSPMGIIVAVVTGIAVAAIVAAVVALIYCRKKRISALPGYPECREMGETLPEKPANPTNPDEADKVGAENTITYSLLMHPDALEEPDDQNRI

B1: CKLO2-GG02 (=P1AF8139) (bispecific antibody)
heavy 1: DIQMTQSPSSLSASVGDRVTITCKAFEDIYNRRAWYQQKPGKAPKLLIHGATSLEHGVPSRFSGSGSGTDYTLTISSLQPEDFATYYCQQFWSAPYTFGGGTKVEIKSSASTKGPSVFPLAPSSKSTSGGTAALGCLVKDYFPEPVTVSWNSGALTSGVHTFPAVLQSSGLYSLSSVVTVPSSSLGTQTYICNVNHKPSNTKVDKKVEPKSCDKTHTCPPCPAPEYLGGDSVFLFPPKPKDVLMISRTPEVTCVVIDVSHEDPEVKFNWYVDGVEVHNAKTKPREEQYNSTYRVVSVLPVLHRDWLNGKEYKCKVSNKALPKPIEKTISKAKGQRREPQVYTLPPCRDELTKNQVSLWCLVKGFYPSDIAVEWESNGQPENNYKTTPPVLDSDGSFFLYSKLTVDKSRWQQGNVFSCSVLHEALHAHTTRKELSLSP
heavy 2: not shown
light 1: QVQLVQSGAEVKKPGSSVKVSCKASGLTISHTYMHWVRQAPGQGLEWMGRIDPDNHNTKFDPKFQGRVTITADTSTSTAYMELSSLRSEDTAVYYCARGVFGFFEHWGQGTTVTVSSASVAAPSVFIFPPSDEQLKSGTASVVCLLNNFYPREAKVQWKVDNALQSGNSQESVTEQDSKDSTYSLSSTLTLSKADYEKHKVYACEVTHQGLSSPVTKSFNRGEC
light 2: EIVLTQSPATLSLSPGERATLSCRASQHVSDAYLAWYQQKPGQAPRLLIYDASDRAEGVPARFSGSGSGTDFTLTISSLEPEDFAVYYCHQYIHLHSFTFGQGTKVEIKRTVAAPSVFIFPPSDRKLKSGTASVVCLLNNFYPREAKVQWKVDNALQSGNSQESVTEQDSKDSTYSLSSTLTLSKADYEKHKVYACEVTHQGLSSPVTKSFNRGEC
B2: P1AF8143 (CKLO2-CB-GG02) (bispecific antibody)
chain 1: not shown
chain 2: QVQLVQSGAEVKKPGSSVKVSCKASGLTISHTYMHWVRQAPGQGLEWMGRIDPDNHNTKFDPKFQGRVTITADTSTSTAYMELSSLRSEDTAVYYCARGVFGFFEHWGQGTTVTVSSASTKGPSVFPLAPSSKSTSGGTAALGCLVKDYFPEPVTVSWNSGALTSGVHTFPAVLQSSGLYSLSSVVTVPSSSLGTQTYICNVNHKPSNTKVDKKVEPKSCGGSGGGGSGGDKTHTCPPCPAPEYLGGDSVFLFPPKPKDVLMISRTPEVTCVVIDVSHEDPEVKFNWYVDGVEVHNAKTKPREEQYNSTYRVVSVLPVLHRDWLNGKEYKCKVSNKALPKPIEKTISKAKGQRREPQVYTLPPCRDELTKNQVSLWCLVKGFYPSDIAVEWESNGQPENNYKTTPPVLDSDGSFFLYSKLTVDKSRWQQGNVFSCSVLHEALHAHTTRKELSLSPGKGGSGGGGSGGDIQMTQSPSSLSASVGDRVTITCKAFEDIYNRRAWYQQKPGKAPKLLIHGATSLEHGVPSRFSGSGSGTDYTLTISSLQPEDFATYYCQQFWSAPYTFGGGTKVEIKRTVAAPSVFIFPPSDEQLKSGTASVVCLLNNFYPREAKVQWKVDNALQSGNSQESVTEQDSKDSTYSLSSTLTLSKADYEKHKVYACEVTHQGLSSPVTKSFNRGEC
B3: 1A5//1G9-PGLALA (bispecific antibody, V domains shown)
VH 1: QEQLVESGGDLVKPEGSLTLTCTASGFSFSTSYWMCWVRQAPGKGLELIACISSSIGVTYYASWAEGRFTISKTSSTTVTLQMTSLTVADTATYFCARTTDDNWNVGFNLWGPGTLVTVSS
VL 1: AYDMTQTPASVEVGVGGTVTIKCQASQSIGNRYLSWYQQKPGQPPKLLIYGTSTLASGVSSRFKGSGSGTQFTLTISGVESADSATYYCQQGATISYLDNAFGGGTEVVVK
VH 2: QSLEESGGDLVKPGASLTLTCKASGIDFSLYSYMCWVRQAPGKGLEWIACVDAGASGSTYYASWAKGRFTISKTSSTTVTLQMTSLTAADTATYFCARGILYYTWPYPAGAIDAFDSWGPGTLVTVSS
VL 2: AYDMTQTPASVSEPVGGTVTIKCQASESISNYLSWYQQKPGQPPKLLIYKASTLASGVPSRFKGSGSGTEYTVTISGVQSDDAATYYCQQSYSSSNVFNTFGGGTEVVVK
notes: CrossMab, IgG1 with L234A, L235A, P329G, knobs-into-holes; crossed arm 1A5, non-crossed arm 1G9; also called CCL2-0046; P1AA3444
B4: 1A5//2F6-WT IgG1 (bispecific antibody, V domains shown)
VH 1: B3 VH 1
VL 1: B3 VL 1
VH 2: QSLEESGGGLVQPEGSLTLTCTASGFSFNNNYYMCWVRQAPGKGLEWIGCISTDDSNTHYASWAQGRFTISKASSTALTLQVAGLTVADMATYFCARDAHFTSYGYGFDLWGPGTLVTVSS
VL 2: DIVMTQTPASVSAAVGGTVSINCRASEDIENLVAWYQQKPGQPPKLLIYQASKLASGVPSRFKGSGSGAEFTLTIGDLESADAATYYCQGDYGSGWIMYSFGGGTDLVVK
notes: CrossMab, wild type IgG1 with knobs-into-holes; crossed arm 1A5, non-crossed arm 2F6; also called CCL2-0058; P1AA3427
B5: 1A5//2F6-PGLALA (bispecific antibody, V domains shown)
VH 1: B3 VH 1
VL 1: B3 VL 1
VH 2: B4 VH 2
VL 2: B4 VL 2
notes: CrossMab, IgG1 with L234A, L235A, P329G, knobs-into-holes; crossed arm 1A5, non-crossed arm 2F6; also called CCL2-0055; P1AA3402
B6: 11K2//1G9-WT IgG1 (bispecific antibody, V domains shown)
VH 1: QVQLVQSGAEVKKPGSSVKVSCKASGLTISDTYMHWVRQAPGQGLEWMGRIDPANGNTKFDPKFQGRVTITADTSTSTAYMELSSLRSEDTAVYYCARGVFGFFDYWGQGTTVTVSS
VL 1: DIQMTQSPSSLSASVGDRVTITCKATEDIYNRLAWYQQKPGKAPKLLISGATSLETGVPSRFSGSGSGTDYTLTISSLQPEDFATYYCQQFWSAPYTFGGGTKVEIK
VH 2: B3 VH 2
VL 2: B3 VL 2
notes: CrossMab, wild type IgG1 with knobs-into-holes; crossed arm humanized 11K2, non-crossed arm 1G9; also called CCL2-0049; P1AA3461
B7: 1A5//1G9-WT IgG1 (bispecific antibody, V domains shown)
VH 1: B3 VH 1
VL 1: B3 VL 1
VH 2: B3 VH 2
VL 2: B3 VL 2
notes: CrossMab, wild type IgG1 with knobs-into-holes; crossed arm 1A5, non-crossed arm 1G9; also called CCL2-0052; P1AA3446
B8: ABN912//11K2-WT IgG1 (bispecific antibody, V domains shown)
VH 1: B6 VH 1
VL 1: B6 VL 1
VH 2: EVQLVQSGGGLVQPGGSLRLSCAASGFTFSHYWMSWVRQAPGKGLEWLANIEQDGSEKYYVDSVKGRFTISRDNAKNSLYLQMNSLRAEDTAVYFCARDLEGLHGDGYFDLWGRGTLVTVSS
VL 2: AIQLTQSPSSLSASVGDRVILTCRASQGVSSALAWYQQKPGKAPKLLIYDASSLESGVPSRFSGSGSGPDFTLTISSLQPEDFATYFCQQFNSYPLTFGGGTKVEIK
notes: CrossMab, wild type IgG1 with knobs-into-holes; crossed arm humanized 11K2, non-crossed arm ABN912; also called CCL2-0047; P1AA3447
B9: ABN912//11K2-PGLALA (bispecific antibody, V domains shown)
VH 1: B6 VH 1
VL 1: B6 VL 1
VH 2: B8 VH 2
VL 2: B8 VL 2
notes: CrossMab, IgG1 with L234A, L235A, P329G, knobs-into-holes; VH/VL-crossed arm humanized 11K2, non-crossed arm ABN912; also called CCL2-0041; P1AA3411
B10: 11K2//2F6-WT IgG1 (bispecific antibody, V domains shown)
VH 1: B6 VH 1
VL 1: B6 VL 1
VH 2: B4 VH 2
VL 2: B4 VL 2
notes: CrossMab, wild type IgG1 with knobs-into-holes; crossed arm humanized 11K2, non-crossed arm 2F6; also called CCL2-0056; P1AA3392
B11: 11K2//2F6-PGLALA (bispecific antibody, V domains shown)
VH 1: B6 VH 1
VL 1: B6 VL 1
VH 2: B4 VH 2
VL 2: B4 VL 2
notes: CrossMab, IgG1 with L234A, L235A, P329G, knobs-into-holes; crossed arm humanized 11K2, non-crossed arm 2F6; also called CCL2-0053; P1AA3450

The target in the first experiment is T1, human FcγRIIb receptor on CHO-K1 cells …. In words: cell-based or functional assay.
B1: the “Depletion level max (%) of CCL2 from the supernatant” value was determined as 45%, the “EC50 [nM] of CCL2 depletion” value is 0.6 nM and the “EC90 [nM] of CCL2 depletion” value was ~30 nM.

As for B2, the “Depletion level max (%) of CCL2 from the supernatant” value worked out at 82%, the “EC50 [nM] of CCL2 depletion” value was found to be 0.14 nM and the “EC90 [nM] of CCL2 depletion” value is 0.4 nM.

For the next experiment, the target named is T2, human CCL2 (MCP1) - wild type (wt) (human, UniProt P13500 24-99).
T2 construct: Made in-house or bought (R&D Systems 279-MC), depending on the assay; can form dimers; also called wt human CCL2; WT human CCL2
In words: SPR, C1 chip, anti-human Fc capture, 25 C, pH 7.4, Langmuir 1:1. As to the method: The sample and system buffer was PBS-T (10 mM phosphate buffered saline including 0.05% Tween20) pH 7.4. The flow cell was set to 25° C.—and the sample block set to 12° C.—and primed with running buffer twice. The bispecific antibody was captured by injecting a 2 μg/ml solution for 60 see at a flow rate of 10 μl/min. Association was measured by injection of human CCL2 (wt) in various concentrations in solution for 150 see at a flow rate of 30 μl/min starting with 30 nM in 1:10 dilutions. The dissociation phase was monitored for up to 1200 sec and triggered by switching from the sample solution to running buffer. […] Bulk refractive index differences were corrected by subtracting the response obtained from a goat anti human IgG Fc surface. Blank injections are also subtracted (=double referencing). For calculation of kinetic parameters, the Langmuir 1:1 model was used.
Turning to B3, the binding result is “binds”.

As to B4, the binding result is reported as “binds”.

With B5, the binding result is given as “binds”.

B6: the binding result is reported as “binds”.

Take B7: the binding result was “binds”.

On to B8, for which the binding result was “binds”.

B9: the binding result is given as “binds”.

Turning to B10, the binding result was “binds”.

Turning to B11, the binding result was “binds”.

Values taken from US20240360208A1 (Hoffmann-La Roche, published 2024).
